Reference: article PMC10917784
Values joined by “and” are separate entries in the source; they are usually repeats but may differ in a detail not shown here. Equal values may be shown once. Each block holds one substance with its values, some of them ahead of it.

Columns and labels:
[1] = target: SIRPα (Homo sapiens) (UniProt P78324); details: cited from earlier work
[2] = target: ISB 1442 with a wild-type Fc (without Fc enhancing mutations) (human); assay: SPR; antibody constructs captured on a Protein L Series S CM5 chip, FcRn flowed over; Biacore 8K+, 25 °C, pH 6.0; steady state affinity model; three replicates
[3] = target: trastuzumab; assay: as above
[4] = target: ISB 1442, CD38 and CD47 bispecific biparatopic antibody (enhanced Fc) (human); assay: as above
[5] = target: trastuzumab; assay: SPR; antibody constructs captured on a Protein L Series S CM5 chip, Fc receptors flowed over; Biacore 8K+, 25 °C, neutral pH; 1:1 binding model (FcγRI and FcγRIIIa); three replicates
[6] = target: ISB 1442, CD38 and CD47 bispecific biparatopic antibody (enhanced Fc) (human); assay: as above
[7] = target: ISB 1442 (human); assay: SPR; antibody constructs immobilised on a Protein L Series S CM5 chip, increasing concentrations of FcRn flushed; Biacore 8K+, 25 °C, pH 6.0; steady state affinity model
[8] = target: ISB 1442 silenced Fc (human); assay: as above
[9] = target: Trastuzumab; assay: SPR; antibody constructs immobilised on a Protein L Series S CM5 chip, increasing concentrations of Fc receptor flushed; Biacore 8K+, 25 °C, neutral pH; 1:1 binding model
[10] = target: ISB 1442 (human); assay: as above
[11] = target: ISB 1442 WT Fc (human); assay: as above

Chain of his-tagged human FcγRIIIa ECD (P08637 17-208): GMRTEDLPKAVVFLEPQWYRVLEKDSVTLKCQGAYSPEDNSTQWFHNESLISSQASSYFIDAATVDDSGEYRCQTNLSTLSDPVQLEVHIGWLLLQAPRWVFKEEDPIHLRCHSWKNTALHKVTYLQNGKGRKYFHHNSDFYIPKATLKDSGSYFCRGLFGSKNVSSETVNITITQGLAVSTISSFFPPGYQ
Chain of human FcγRIIIa ECD (P08637 17-208): as above
Chain of human FcγRI extracellular domain (ECD) (P12314 16-292): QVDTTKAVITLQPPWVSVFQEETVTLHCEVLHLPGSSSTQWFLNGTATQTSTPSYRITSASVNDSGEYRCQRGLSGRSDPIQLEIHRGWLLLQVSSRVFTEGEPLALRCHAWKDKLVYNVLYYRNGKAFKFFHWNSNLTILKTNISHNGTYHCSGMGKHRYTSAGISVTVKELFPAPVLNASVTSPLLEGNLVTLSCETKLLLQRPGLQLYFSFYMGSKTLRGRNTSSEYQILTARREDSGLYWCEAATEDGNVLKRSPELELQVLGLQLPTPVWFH

Substance: CD47 (from UniProt Q08722)
Kd [1]: 1000 nM

Substance: human FcγRI extracellular domain (ECD) (from UniProt P12314 16-292) (receptor)
Kd [9]: 0.21 nM

Substance: human FcγRIIIa ECD (from UniProt P08637 17-208) (receptor)
Kd [10]: 13 nM | Kd [11]: 57 nM

Next, values leading:

Kd [2]: 236 nM | Kd [3]: 253 nM and 217 nM and 203 nM | Kd [4]: 129 nM and 189 nM | Kd ([4]; mean): 181 nM
Substance: his-tagged human FcRn ECD & β2 microglobulin (from UniProt P55899 24-297; P61769 21-119) (complex)

Kd [5]: 134 nM | Kd [6]: 13.2 nM and 12.6 nM and 13.8 nM | Kd ([6]; mean): 13.2 nM
Substance: his-tagged human FcγRIIIa ECD (from UniProt P08637 17-208) (receptor)

Kd [7]: 181 nM | Kd [8]: 221 nM
Substance: human FcRn ECD & β2 microglobulin (from UniProt P55899 24-297; P61769 21-119) (complex)
